This is an account of results in US20260001928A1 (CORTERIA PHARMACEUTICALS, priority 2022, published 2026).

*1 amine or outer side, *2 acyl side, *3 side chain or, on linkers, in order; H or OH if unused. Side-chain parts run from the residue outwards. [ ]: non-standard residue; d: D form. The star is where a group is joined. C18 diacid = O=C(O)CCCCCCCCCCCCCCCCC(=O)*; C16 diacid = O=C(O)CCCCCCCCCCCCCCC(=O)*; γGlu = O=C(O)[C@H](CCC(=O)[*:2])N[*:1]; Pentanoyl = CCCCC(=O)*; AEEA = NCCOCCOCC(=O)O; Aib = CC(C)(N)C(=O)O; Propionyl = CCC(=O)*; Butyryl = CCCC(=O)*

The target in experiment [1] is T1, CRF1R receptor (UniProt P34998 24-415, limits assumed).
T1 sequence (looked up): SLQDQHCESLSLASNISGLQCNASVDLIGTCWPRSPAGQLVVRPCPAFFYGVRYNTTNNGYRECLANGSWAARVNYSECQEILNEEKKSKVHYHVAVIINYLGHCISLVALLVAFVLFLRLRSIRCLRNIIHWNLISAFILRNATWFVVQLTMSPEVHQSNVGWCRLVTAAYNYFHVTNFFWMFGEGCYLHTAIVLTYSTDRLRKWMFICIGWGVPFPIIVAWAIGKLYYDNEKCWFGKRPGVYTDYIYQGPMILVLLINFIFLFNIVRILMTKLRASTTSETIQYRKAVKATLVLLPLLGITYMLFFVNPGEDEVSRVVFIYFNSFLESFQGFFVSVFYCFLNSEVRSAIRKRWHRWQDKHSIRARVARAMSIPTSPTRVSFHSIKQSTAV
Briefly: cell-based or functional assay.

For experiment [2], the target named is human corticotropin-releasing factor 2a (CRF2a receptor) (human), Q13324. Description: cell-based or functional assay.
Chain of human corticotropin-releasing factor 2a (CRF2a receptor) (human), Q13324 (Q13324 20-411): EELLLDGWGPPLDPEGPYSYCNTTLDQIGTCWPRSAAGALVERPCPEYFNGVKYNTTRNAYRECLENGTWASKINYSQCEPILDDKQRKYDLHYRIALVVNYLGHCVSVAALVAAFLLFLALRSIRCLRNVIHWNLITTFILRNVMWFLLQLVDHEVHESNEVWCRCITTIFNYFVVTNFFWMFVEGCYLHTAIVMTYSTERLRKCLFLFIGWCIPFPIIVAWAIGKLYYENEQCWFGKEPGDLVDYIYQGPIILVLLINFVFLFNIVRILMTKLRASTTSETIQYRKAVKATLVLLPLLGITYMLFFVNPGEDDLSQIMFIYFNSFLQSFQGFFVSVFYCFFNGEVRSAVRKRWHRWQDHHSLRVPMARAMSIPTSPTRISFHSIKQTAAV

B1: SEQ ID NO 35 (peptide)
peptide: Propionyl-VLSLD[dV]PIKLK([γGlu-C16 diacid])KILLEQEKQKKQREQAETNKQILAQV-NH2
SMILES: CCC(=O)N[C@H](C(=O)N[C@@H](CC(C)C)C(=O)N[C@@H](CO)C(=O)N[C@@H](CC(C)C)C(=O)N[C@@H](CC(=O)O)C(=O)N[C@@H](C(=O)N1CCC[C@H]1C(=O)N[C@H](C(=O)N[C@@H](CCCCN)C(=O)N[C@@H](CC(C)C)C(=O)N[C@@H](CCCCNC(=O)CC[C@H](NC(=O)CCCCCCCCCCCCCCC(=O)O)C(=O)O)C(=O)N[C@@H](CCCCN)C(=O)N[C@H](C(=O)N[C@@H](CC(C)C)C(=O)N[C@@H](CC(C)C)C(=O)N[C@@H](CCC(=O)O)C(=O)N[C@@H](CCC(N)=O)C(=O)N[C@@H](CCC(=O)O)C(=O)N[C@@H](CCCCN)C(=O)N[C@@H](CCC(N)=O)C(=O)N[C@@H](CCCCN)C(=O)N[C@@H](CCCCN)C(=O)N[C@@H](CCC(N)=O)C(=O)N[C@@H](CCCNC(=N)N)C(=O)N[C@@H](CCC(=O)O)C(=O)N[C@@H](CCC(N)=O)C(=O)N[C@@H](C)C(=O)N[C@@H](CCC(=O)O)C(=O)N[C@H](C(=O)N[C@@H](CC(N)=O)C(=O)N[C@@H](CCCCN)C(=O)N[C@@H](CCC(N)=O)C(=O)N[C@H](C(=O)N[C@@H](CC(C)C)C(=O)N[C@@H](C)C(=O)N[C@@H](CCC(N)=O)C(=O)N[C@H](C(N)=O)C(C)C)[C@@H](C)CC)[C@@H](C)O)[C@@H](C)CC)[C@@H](C)CC)C(C)C)C(C)C
Regarding B1, the “Emax (% I)” value in experiment [1] amounted to 13%. The EC50 [nM] (cAMP) in experiment [2] stood at 0.23 nM.

B2: SEQ ID NO 22 (peptide)
peptide: Pentanoyl-VLSLD[dV]PIKLK([γGlu-C16 diacid])Q[Aib]LLKQERQKKQREQAEKNVQILEQV-NH2
SMILES: CCCCC(=O)N[C@H](C(=O)N[C@@H](CC(C)C)C(=O)N[C@@H](CO)C(=O)N[C@@H](CC(C)C)C(=O)N[C@@H](CC(=O)O)C(=O)N[C@@H](C(=O)N1CCC[C@H]1C(=O)N[C@H](C(=O)N[C@@H](CCCCN)C(=O)N[C@@H](CC(C)C)C(=O)N[C@@H](CCCCNC(=O)CC[C@H](NC(=O)CCCCCCCCCCCCCCC(=O)O)C(=O)O)C(=O)N[C@@H](CCC(N)=O)C(=O)NC(C)(C)C(=O)N[C@@H](CC(C)C)C(=O)N[C@@H](CC(C)C)C(=O)N[C@@H](CCCCN)C(=O)N[C@@H](CCC(N)=O)C(=O)N[C@@H](CCC(=O)O)C(=O)N[C@@H](CCCNC(=N)N)C(=O)N[C@@H](CCC(N)=O)C(=O)N[C@@H](CCCCN)C(=O)N[C@@H](CCCCN)C(=O)N[C@@H](CCC(N)=O)C(=O)N[C@@H](CCCNC(=N)N)C(=O)N[C@@H](CCC(=O)O)C(=O)N[C@@H](CCC(N)=O)C(=O)N[C@@H](C)C(=O)N[C@@H](CCC(=O)O)C(=O)N[C@@H](CCCCN)C(=O)N[C@@H](CC(N)=O)C(=O)N[C@H](C(=O)N[C@@H](CCC(N)=O)C(=O)N[C@H](C(=O)N[C@@H](CC(C)C)C(=O)N[C@@H](CCC(=O)O)C(=O)N[C@@H](CCC(N)=O)C(=O)N[C@H](C(N)=O)C(C)C)[C@@H](C)CC)C(C)C)[C@@H](C)CC)C(C)C)C(C)C
As to B2, the “Emax (% I)” value in experiment [1] was determined as 3%. For the same molecule, the EC50 [nM] (cAMP) in experiment [2] turned out to be 4.44 nM.

B3: SEQ ID NO 121 (peptide)
peptide: Pentanoyl-VLSLD[dV]PIKLK([AEEA-AEEA-γGlu-C18 diacid])KILLEQEKQKKQREQAETNVQILAQV-NH2
SMILES: CCCCC(=O)N[C@H](C(=O)N[C@@H](CC(C)C)C(=O)N[C@@H](CO)C(=O)N[C@@H](CC(C)C)C(=O)N[C@@H](CC(=O)O)C(=O)N[C@@H](C(=O)N1CCC[C@H]1C(=O)N[C@H](C(=O)N[C@@H](CCCCN)C(=O)N[C@@H](CC(C)C)C(=O)N[C@@H](CCCCNC(=O)COCCOCCNC(=O)COCCOCCNC(=O)CC[C@H](NC(=O)CCCCCCCCCCCCCCCCC(=O)O)C(=O)O)C(=O)N[C@@H](CCCCN)C(=O)N[C@H](C(=O)N[C@@H](CC(C)C)C(=O)N[C@@H](CC(C)C)C(=O)N[C@@H](CCC(=O)O)C(=O)N[C@@H](CCC(N)=O)C(=O)N[C@@H](CCC(=O)O)C(=O)N[C@@H](CCCCN)C(=O)N[C@@H](CCC(N)=O)C(=O)N[C@@H](CCCCN)C(=O)N[C@@H](CCCCN)C(=O)N[C@@H](CCC(N)=O)C(=O)N[C@@H](CCCNC(=N)N)C(=O)N[C@@H](CCC(=O)O)C(=O)N[C@@H](CCC(N)=O)C(=O)N[C@@H](C)C(=O)N[C@@H](CCC(=O)O)C(=O)N[C@H](C(=O)N[C@@H](CC(N)=O)C(=O)N[C@H](C(=O)N[C@@H](CCC(N)=O)C(=O)N[C@H](C(=O)N[C@@H](CC(C)C)C(=O)N[C@@H](C)C(=O)N[C@@H](CCC(N)=O)C(=O)N[C@H](C(N)=O)C(C)C)[C@@H](C)CC)C(C)C)[C@@H](C)O)[C@@H](C)CC)[C@@H](C)CC)C(C)C)C(C)C
Consider B3, for which, in experiment [1], the “Emax (% I)” value was 6%. The EC50 [nM] (cAMP) in experiment [2] stood at 5.76 nM.

B4: SEQ ID NO 36 (peptide)
peptide: Butyryl-VLSLD[dV]PIKLK([γGlu-C16 diacid])KILLEQEKQKKQREQAETNKQILAQV-NH2
SMILES: CCCC(=O)N[C@H](C(=O)N[C@@H](CC(C)C)C(=O)N[C@@H](CO)C(=O)N[C@@H](CC(C)C)C(=O)N[C@@H](CC(=O)O)C(=O)N[C@@H](C(=O)N1CCC[C@H]1C(=O)N[C@H](C(=O)N[C@@H](CCCCN)C(=O)N[C@@H](CC(C)C)C(=O)N[C@@H](CCCCNC(=O)CC[C@H](NC(=O)CCCCCCCCCCCCCCC(=O)O)C(=O)O)C(=O)N[C@@H](CCCCN)C(=O)N[C@H](C(=O)N[C@@H](CC(C)C)C(=O)N[C@@H](CC(C)C)C(=O)N[C@@H](CCC(=O)O)C(=O)N[C@@H](CCC(N)=O)C(=O)N[C@@H](CCC(=O)O)C(=O)N[C@@H](CCCCN)C(=O)N[C@@H](CCC(N)=O)C(=O)N[C@@H](CCCCN)C(=O)N[C@@H](CCCCN)C(=O)N[C@@H](CCC(N)=O)C(=O)N[C@@H](CCCNC(=N)N)C(=O)N[C@@H](CCC(=O)O)C(=O)N[C@@H](CCC(N)=O)C(=O)N[C@@H](C)C(=O)N[C@@H](CCC(=O)O)C(=O)N[C@H](C(=O)N[C@@H](CC(N)=O)C(=O)N[C@@H](CCCCN)C(=O)N[C@@H](CCC(N)=O)C(=O)N[C@H](C(=O)N[C@@H](CC(C)C)C(=O)N[C@@H](C)C(=O)N[C@@H](CCC(N)=O)C(=O)N[C@H](C(N)=O)C(C)C)[C@@H](C)CC)[C@@H](C)O)[C@@H](C)CC)[C@@H](C)CC)C(C)C)C(C)C
Turning to B4, the “Emax (% I)” value in experiment [1] is 22%. Moreover, in experiment [2], the EC50 [nM] (cAMP) came out at 0.14 nM.

B5: SEQ ID NO 37 (peptide)
peptide: Pentanoyl-VLSLD[dV]PIKLK([γGlu-C16 diacid])KILLEQEKQKKQREQAETNKQILAQV-NH2
SMILES: CCCCC(=O)N[C@H](C(=O)N[C@@H](CC(C)C)C(=O)N[C@@H](CO)C(=O)N[C@@H](CC(C)C)C(=O)N[C@@H](CC(=O)O)C(=O)N[C@@H](C(=O)N1CCC[C@H]1C(=O)N[C@H](C(=O)N[C@@H](CCCCN)C(=O)N[C@@H](CC(C)C)C(=O)N[C@@H](CCCCNC(=O)CC[C@H](NC(=O)CCCCCCCCCCCCCCC(=O)O)C(=O)O)C(=O)N[C@@H](CCCCN)C(=O)N[C@H](C(=O)N[C@@H](CC(C)C)C(=O)N[C@@H](CC(C)C)C(=O)N[C@@H](CCC(=O)O)C(=O)N[C@@H](CCC(N)=O)C(=O)N[C@@H](CCC(=O)O)C(=O)N[C@@H](CCCCN)C(=O)N[C@@H](CCC(N)=O)C(=O)N[C@@H](CCCCN)C(=O)N[C@@H](CCCCN)C(=O)N[C@@H](CCC(N)=O)C(=O)N[C@@H](CCCNC(=N)N)C(=O)N[C@@H](CCC(=O)O)C(=O)N[C@@H](CCC(N)=O)C(=O)N[C@@H](C)C(=O)N[C@@H](CCC(=O)O)C(=O)N[C@H](C(=O)N[C@@H](CC(N)=O)C(=O)N[C@@H](CCCCN)C(=O)N[C@@H](CCC(N)=O)C(=O)N[C@H](C(=O)N[C@@H](CC(C)C)C(=O)N[C@@H](C)C(=O)N[C@@H](CCC(N)=O)C(=O)N[C@H](C(N)=O)C(C)C)[C@@H](C)CC)[C@@H](C)O)[C@@H](C)CC)[C@@H](C)CC)C(C)C)C(C)C
In the case of B5, the “Emax (% I)” value in experiment [1] is 22%. This molecule also had an EC50 [nM] (cAMP) in experiment [2] of 0.13 nM.

B6: SEQ ID NO 18 (peptide)
peptide: Ac-IVLSLD[dV]PIKLK([γGlu-C16 diacid])Q[Aib]LLKQERQKKQREQAEKNVQILEQV-NH2
SMILES: CC[C@H](C)[C@H](NC(C)=O)C(=O)N[C@H](C(=O)N[C@@H](CC(C)C)C(=O)N[C@@H](CO)C(=O)N[C@@H](CC(C)C)C(=O)N[C@@H](CC(=O)O)C(=O)N[C@@H](C(=O)N1CCC[C@H]1C(=O)N[C@H](C(=O)N[C@@H](CCCCN)C(=O)N[C@@H](CC(C)C)C(=O)N[C@@H](CCCCNC(=O)CC[C@H](NC(=O)CCCCCCCCCCCCCCC(=O)O)C(=O)O)C(=O)N[C@@H](CCC(N)=O)C(=O)NC(C)(C)C(=O)N[C@@H](CC(C)C)C(=O)N[C@@H](CC(C)C)C(=O)N[C@@H](CCCCN)C(=O)N[C@@H](CCC(N)=O)C(=O)N[C@@H](CCC(=O)O)C(=O)N[C@@H](CCCNC(=N)N)C(=O)N[C@@H](CCC(N)=O)C(=O)N[C@@H](CCCCN)C(=O)N[C@@H](CCCCN)C(=O)N[C@@H](CCC(N)=O)C(=O)N[C@@H](CCCNC(=N)N)C(=O)N[C@@H](CCC(=O)O)C(=O)N[C@@H](CCC(N)=O)C(=O)N[C@@H](C)C(=O)N[C@@H](CCC(=O)O)C(=O)N[C@@H](CCCCN)C(=O)N[C@@H](CC(N)=O)C(=O)N[C@H](C(=O)N[C@@H](CCC(N)=O)C(=O)N[C@H](C(=O)N[C@@H](CC(C)C)C(=O)N[C@@H](CCC(=O)O)C(=O)N[C@@H](CCC(N)=O)C(=O)N[C@H](C(N)=O)C(C)C)[C@@H](C)CC)C(C)C)[C@@H](C)CC)C(C)C)C(C)C
Take B6: the “Emax (% I)” value in experiment [1] amounted to 10%. The EC50 [nM] (cAMP) in experiment [2] is 3.55 nM.
